In patent US20230265179A1 (TWIST BIOSCIENCE, published 2023):

T1: IL1RL1 over-expressed on Expi293 cells (UniProt Q01638 19-556, limits assumed)
T1 construct: whole, on cells; Target of the flow cytometry MFI ratio (over-expressing cells over parent cells); also called cytokine over-expressing Expi293 cells
T1 sequence (looked up): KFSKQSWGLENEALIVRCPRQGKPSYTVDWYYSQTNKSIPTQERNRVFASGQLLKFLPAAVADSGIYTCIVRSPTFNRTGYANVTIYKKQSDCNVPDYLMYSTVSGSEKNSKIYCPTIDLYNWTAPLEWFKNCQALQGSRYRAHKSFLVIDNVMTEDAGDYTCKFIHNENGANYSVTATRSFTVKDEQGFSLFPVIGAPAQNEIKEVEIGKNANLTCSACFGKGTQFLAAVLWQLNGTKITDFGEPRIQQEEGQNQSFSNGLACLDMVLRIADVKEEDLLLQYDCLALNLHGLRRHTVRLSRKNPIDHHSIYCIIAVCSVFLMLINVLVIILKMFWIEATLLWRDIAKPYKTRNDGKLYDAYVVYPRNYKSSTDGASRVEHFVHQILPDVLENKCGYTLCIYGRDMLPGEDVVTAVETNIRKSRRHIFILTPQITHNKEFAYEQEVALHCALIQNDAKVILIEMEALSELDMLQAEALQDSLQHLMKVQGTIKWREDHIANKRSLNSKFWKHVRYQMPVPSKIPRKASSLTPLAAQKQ

T2: IL1RL1 (UniProt Q01638 19-328, limits assumed)
T2 construct: SPR analyte
T2 sequence (looked up): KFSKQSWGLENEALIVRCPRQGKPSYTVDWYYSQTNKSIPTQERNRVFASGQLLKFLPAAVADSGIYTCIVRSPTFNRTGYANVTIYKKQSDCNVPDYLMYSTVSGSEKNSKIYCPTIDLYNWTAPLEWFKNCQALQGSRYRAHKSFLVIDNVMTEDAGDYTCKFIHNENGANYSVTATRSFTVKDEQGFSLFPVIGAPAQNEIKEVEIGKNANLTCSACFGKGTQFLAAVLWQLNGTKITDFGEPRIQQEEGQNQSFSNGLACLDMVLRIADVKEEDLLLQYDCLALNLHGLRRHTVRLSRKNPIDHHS


Tests used:
[1] = target: T1, IL1RL1 over-expressed on Expi293 cells; experiment: flow cytometry, 100 nM antibody, over-expressing Expi293 / parent cells
Method: All incubations and washes were in buffer containing PBS+1% BSA. MFI Ratio is defined by the mean fluorescence intensity (MFI) of the cytokine over-expressing Expi293 cell over the Expi293 parent cell. […] EC50 was calculated in GraphPad Prism.

IL1RL1 = target: T2, IL1RL1; experiment: SPR (Carterra LSA), antibody amine-coupled, 1:1 model;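 also: HC30M sensor chip at 25 °C in HBS-TE, analyte at rising concentrations in buffer containing 0.5 mg/mL BSA, 5 min association then 15 min dissociation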
Method: SPR experiments were performed on a Carterra LSA SPR biosensor equipped with a HC30M chip at 25° C. in HBS-TE. Antibodies were diluted to 10 μg/mL and amine-coupled to the sensor chip by EDC/NHS activation, followed by ethanolamine HCl quenching. Increasing concentrations of analyte were flowed over the sensor chip in HBS-TE with 0.5 mg/mL BSA with 5-minute association and 15-minute dissociation. Following each injection cycle the surface was regenerated with 2× 30-second injections of IgG elution buffer (Thermo). Data were analyzed in Carterra's Kinetics Tool software with 1:1 binding model.

Row | Binder | 100 nM FACS (MFI Ratio) [1] | Kd (IL1RL1) | koff (IL1RL1) | kon (IL1RL1)
1 | IL1RL1-73 (Fc fusion, not shown: a dimerising Fc or GST, VHH-Fc on IgG2 Fc) VHH: EVQLVESGGGLVQPGGSLRLSCAASGDISSIVAMGWFRQAPGKEREWVSSIGIAGTPTFYADSVKGRFTISADNSKNTAYLQMNSLKPEDTAVYYCAGRSIGVDDMPYVWGQGTLVTVSS | 463 MFI ratio | 2.06 nM | 0.000362 s⁻¹ | 176000 M⁻¹ s⁻¹
2 | IL1RL1-27 (Fc fusion, not shown: a dimerising Fc or GST, VHH-Fc on IgG2 Fc) VHH: EVQLVESGGGLVQPGGSLRLSCAASGGTISTYAIGWFRQAPGKEREGVAAISPGNNTHYADSVKGRFTISADNSKNTAYLQMNSLKPEDTAVYYCAARPVRVDDISLPVGFDWGQGTLVTVSS | 450 MFI ratio | 3.7 nM | 0.000372 s⁻¹ | 101000 M⁻¹ s⁻¹
3 | IL1RL1-45 (Fc fusion, not shown: a dimerising Fc or GST, VHH-Fc on IgG2 Fc) VHH: EVQLVESGGGLVQPGGSLRLSCAASGRTLSSYTMGWFRQAPGKEREFVAGIWSGGYTHYADSVKGRFTISADNSKNTAYLQMNSLKPEDTAVYYCAAVSSNSETFDWGQGTLVTVSS | 704 MFI ratio | 1.19 nM | 0.000326 s⁻¹ | 275000 M⁻¹ s⁻¹
4 | IL1RL1-83 (Fc fusion, not shown: a dimerising Fc or GST, VHH-Fc on IgG2 Fc) VHH: EVQLVESGGGLVQPGGSLRLSCAASGRSISDYTMGWFRQAPGKEREFVAGIWSGGYTHYADSVKGRFTISADNSKNTAYLQMNSLKPEDTAVYYCAAVSSNSETFDWGQGTLVTVSS | 628 MFI ratio | 1.2 nM | 0.00016 s⁻¹ | 134000 M⁻¹ s⁻¹
5 | IL1RL1-47 (Fc fusion, not shown: a dimerising Fc or GST, VHH-Fc on IgG2 Fc) VHH: EVQLVESGGGLVQPGGSLRLSCAASGRTFSMGWFRQAPGKEREWVASISTSGSTITPYADSVKGRFTISADNSKNTAYLQMNSLKPEDTAVYYCAAQGSLYDDYDGLPIKYDWGQGTLVTVSS | 467 MFI ratio | 4.73 nM | 0.00031 s⁻¹ | 65600 M⁻¹ s⁻¹
6 | IL1RL1-63 (Fc fusion, not shown: a dimerising Fc or GST) VHH: EVQLVESGGGLVQPGGSLRLSCAASGRTLSSIYAMGWFRQAPGKEREGVAAIYSGGITTYADSVKGRFTISADNSKNTAYLQMNSLKPEDTAVYYCAAFDGYSGSDWGQGTLVTVSS | 451 MFI ratio | 0.153 nM | 3.16e-05 s⁻¹ | 207000 M⁻¹ s⁻¹
7 | IL1RL1-46 (Fc fusion, not shown: a dimerising Fc or GST, VHH-Fc on IgG2 Fc) VHH: EVQLVESGGGLVQPGGSLRLSCAASGFTFSDIAMGWFRQAPGKEREFVAAINWSGGSTKYADSVKGRFTISADNSKNTAYLQMNSLKPEDTAVYYCAYSGIGTDWGQGTLVTVSS | 300 MFI ratio | 3.06 nM | 0.000553 s⁻¹ | 181000 M⁻¹ s⁻¹
8 | IL1RL1-54 (Fc fusion, not shown: a dimerising Fc or GST, VHH-Fc on IgG2 Fc) VHH: EVQLVESGGGLVQPGGSLRLSCAASGNIPPINAMGWFRQAPGKEREWVASISTSGSTITPYADSVKGRFTISADNSKNTAYLQMNSLKPEDTAVYYCAARSGWSGQYDWGQGTLVTVSS | 500 MFI ratio | 0.516 nM | 9.06e-05 s⁻¹ | 176000 M⁻¹ s⁻¹
9 | IL1RL1-49 (Fc fusion, not shown: a dimerising Fc or GST, VHH-Fc on IgG2 Fc) VHH: EVQLVESGGGLVQPGGSLRLSCAASGRTVTMGWFRQAPGKEREFVAGINWESGSTDYADSVKGRFTISADNSKNTAYLQMNSLKPEDTAVYYCAALALGTDQSSTFDWGQGTLVTVSS | 248 MFI ratio | 2.42 nM | 0.000673 s⁻¹ | 277000 M⁻¹ s⁻¹
10 | IL1RL1-23 (Fc fusion, not shown: a dimerising Fc or GST, VHH-Fc on IgG2 Fc) VHH: EVQLVESGGGLVQPGGSLRLSCAASGRTFSTASMGWFRQAPGKEREWVASISTSGSTITPYADSVKGRFTISADNSKNTAYLQMNSLKPEDTAVYYCAVVDLLRGKLWGQGTLVTVSS | 526 MFI ratio | ≤ 0.188 nM | ≤ 1e-05 s⁻¹ | 53100 M⁻¹ s⁻¹
11 | IL1RL1-24 (Fc fusion, not shown: a dimerising Fc or GST, VHH-Fc on IgG2 Fc) VHH: EVQLVESGGGLVQPGGSLRLSCAASGGTAYAMGWFRQAPGKEREWVASISTSGSTITPYADSVKGRFTISADNSKNTAYLQMNSLKPEDTAVYYCAAASRSGSGYDWGQGTLVTVSS | 438 MFI ratio | 1.62 nM | 0.000232 s⁻¹ | 143000 M⁻¹ s⁻¹
12 | IL1RL1-59 (Fc fusion, not shown: a dimerising Fc or GST, VHH-Fc on IgG2 Fc) VHH: EVQLVESGGGLVQPGGSLRLSCAASGGTAYAMGWFRQAPGKEREWVASISTSGSTITPYADSVKGRFTISADNSKNTAYLQMNSLKPEDTAVYYCAANVGVTGSYEWGQGTLVTVSS | 374 MFI ratio | ≤ 0.0748 nM | ≤ 1e-05 s⁻¹ | 134000 M⁻¹ s⁻¹
13 | IL1RL1-25 (Fc fusion, not shown: a dimerising Fc or GST, VHH-Fc on IgG2 Fc) VHH: EVQLVESGGGLVQPGGSLRLSCAASGGTFNGRAMGWFRQAPGKEREGVATINSGGGTNYADSVKGRFTISADNSKNTAYLQMNSLKPEDTAVYYCALRRLSPPPLLDWGQGTLVTVSS | 69.5 MFI ratio | 1.47 nM | 0.000392 s⁻¹ | 267000 M⁻¹ s⁻¹
14 | IL1RL1-39 (Fc fusion, not shown: a dimerising Fc or GST, VHH-Fc on IgG2 Fc) VHH: EVQLVESGGGLVQPGGSLRLSCAASGGTFSVYAMGWFRQAPGKEREAVASISTSGGSTYYADSVKGRFTISADNSKNTAYLQMNSLKPEDTAVYYCAIGGTLYDRRRFEWGQGTLVTVSS | 267 MFI ratio | 0.688 nM | 5.5e-05 s⁻¹ | 80000 M⁻¹ s⁻¹
15 | IL1RL1-57 (Fc fusion, not shown: a dimerising Fc or GST, VHH-Fc on IgG2 Fc) VHH: EVQLVESGGGLVQPGGSLRLSCAASGDIGSINSMGWFRQAPGKEREFLASVSWGFGSTYYADSVKGRFTISADNSKNTAYLQMNSLKPEDTAVYYCAVNRLLYYSSGYYQTSVDWGQGTLVTVSS | 282 MFI ratio | 1.73 nM | 0.000364 s⁻¹ | 211000 M⁻¹ s⁻¹
16 | IL1RL1-40 (Fc fusion, not shown: a dimerising Fc or GST, VHH-Fc on IgG2 Fc) VHH: EVQLVESGGGLVQPGGSLRLSCAASGRTFSDYVMGWFRQAPGKEREIVAAIAWTGTTDYADSVKGRFTISADNSKNTAYLQMNSLKPEDTAVYYCAARIRGKVTVDNFDYAWGQGTLVTVSS | 415 MFI ratio | 7.31 nM | 0.00116 s⁻¹ | 159000 M⁻¹ s⁻¹
17 | IL1RL1-26 (Fc fusion, not shown: a dimerising Fc or GST, VHH-Fc on IgG2 Fc) VHH: EVQLVESGGGLVQPGGSLRLSCAASGLTTVYTMGWFRQAPGKERESVASISWTGGTTYYADSVKGRFTISADNSKNTAYLQMNSLKPEDTAVYYCAAIAHEEGVYRWDWGQGTLVTVSS | 310 MFI ratio | 3.12 nM | 0.000618 s⁻¹ | 198000 M⁻¹ s⁻¹
18 | IL1RL1-44 (Fc fusion, not shown: a dimerising Fc or GST, VHH-Fc on IgG2 Fc) VHH: EVQLVESGGGLVQPGGSLRLSCAASGDYYAMGWFRQAPGKEREWVSSIGIAGTPTFYADSVKGRFTISADNSKNTAYLQMNSLKPEDTAVYYCAANVGVTGSYEWGQGTLVTVSS | 448 MFI ratio | ≤ 0.016 nM | ≤ 1e-05 s⁻¹ | 626000 M⁻¹ s⁻¹
19 | IL1RL1-78 (Fc fusion, not shown: a dimerising Fc or GST, VHH-Fc on IgG2 Fc) VHH: EVQLVESGGGLVQPGGSLRLSCAASGFTLDDYAMGWFRQAPGKEREEVAAISWIIGSTKYADSVKGRFTISADNSKNTAYLQMNSLKPEDTAVYYCAAIVYEEGVYRWDWGQGTLVTVSS | 475 MFI ratio | 1.36 nM | 0.000278 s⁻¹ | 204000 M⁻¹ s⁻¹
